7 molecules from patent publication US20140286963A1 (Genentech, published 2014) can be followed below.

Assay [1] deals with T1, human BACE1 extracellular domain, amino acids 1-457 of SEQ ID NO:49 (human, UniProt P56817 22-457, biotinylated in the phage sorting, phage ELISAs and the competition ELISA (sites not given)).
T1 construct: also called human BACE1 ECD; hBACE1
In words: one-point competition phage ELISA, plate-immobilized BACE1, 20 nM BACE1 in solution. The procedure:
(§1) Screening of the libraries for affinity maturation of initially obtained antibodies was carried out similarly as described above. […] For rounds 2 and 3, 20 nM and 5 nM biotinylated BACE1 was incubated with amplified phage, respectively. Clones (96) from each of the two libraries were screened in a one-point competition ELISA, where 20 nM of BACE1 was used in solution to compete the phage particle from binding to plate-immobilized BACE1 as described below.
(§2) A plate immobilized with BACE1 was prepared by capturing 2 μg/ml biotinylated BACE1 for 15 min using a 384-well Maxisorp Immunoplate that was previously coated with 2 μg/ml of Neutravidin at 4° C. for overnight and blocked with Blocking Buffer. The culture supernatants from individual clones grown in a 96-well format were diluted 20-fold in PBT buffer and was incubated with or without 20 nM BACE1 at room temperature for 1 h. The mixture was transferred to the plate with immobilized BACE1 and incubated for 15 min. The plate was washed six times by PT buffer and the bound phage was detected by anti-M13-HRP as described above. The ratio between the ELISA signal from the well in the absence and the presence of BACE1 in solution indicates the affinity of the clone, where higher ratios indicate the higher affinities.
Background: An ELISA detects its analyte on a solid surface through an enzyme-linked reagent.

The target of assay [2] is T1, human BACE1 extracellular domain, amino …. The experiment in a line: phage competition ELISA: Fab-displaying phage on plate-immobilized BACE1, serial dilutions of BACE1 in solution. Here is the method:
(§3) Single colonies (in XL1 blue cells) of the selected clones were picked up and grown in 1 ml 2YT broth supplemented with 50 μg/ml carbenicillin, 10 μg/ml tetracycline and M13KO7 at 37° C. for 2 h. Kanamycin (25 μg/ml) was added to the culture, which continued to grow for 6 h. The culture was transferred to 30 ml 2YT broth supplemented with 50 μg/ml carbenicillin and 25 μg/mlkanamycin and grown at 37° C. overnight. Phage were harvested and purified as previously described (Sidhu, S. S. et al. Methods Enzymol. 328: 333-363 (2000)). The purified Fab-displaying phage were serially diluted in PBT buffer and tested for binding to BACE1 immobilized on a plate. A fixed phage concentration that gives 80% of saturation signals was selected for the subsequent competition ELISA. The competition was conducted by incubating the fixed, sub-saturating Fab-displaying phage with serial dilutions of BACE1 for 1 h and then transferred to the BACE1-immobulized plate for 15 min to capture unbound phage. The plate was then washed for 8 times and bound phage were detected by anti-M13-HRP.
(§4) To estimate the affinity of these 6 clones, phage competition ELISAs were performed, as described above, and IC₅₀ values were determined (FIG. 7). The IC₅₀ values were determined by fitting the data to a four-parameter logistic equation developed by Marquardt (Marquardt, D. W. SIAM J. Appl. Math. 11: 431-441 (1963)) using Kaleidagraph (Synergy Software) and are shown below in Table 2.

Assay [3] has the same target. The experiment in a line: phage competition ELISA IC50, against parent Fab5. Here is the method:
as §3, with “The competition was conducted by incubating the fixed, sub-saturating Fab-displaying phage with serial dilutions of BACE1 for 1 h and then transferred to the BACE1-immobulized plate for 15 min to capture unbound phage.” left out
as §4

Assay [4] has the same target. In words: cell-based or functional assay.
Assay [5] shares this target. In words: one-point phage competition ELISA: ratio of the ELISA signal of Fab-displaying phage on plate-immobilized BACE1 without / with 20 nM BACE1 in solution. Here is the method:
as §1, §2

Assay [6] has the same target. In words: phage competition ELISA IC50; parent, reference for LC9, LC10 and LC6.
For assay [7] the target is unchanged. In words: phage competition ELISA: Fab-displaying phage incubated with serial dilutions of BACE1 in solution, unbound phage captured on plate-immobilized BACE1, anti-M13-HRP, OD450. Here is the method: as §3, with “The competition was conducted by incubating the fixed, sub-saturating Fab-displaying phage with serial dilutions of BACE1 for 1 h and then transferred to the BACE1-immobulized plate for 15 min to capture unbound phage.” left out
as §4

The target is the same in assay [8]. In words: cell-based or functional assay. This is another data set of the same source.
For assay [9] the target is unchanged. The experiment in a line: SPR (BIAcore-3000), second unlabelled row under Human, IgG captured by anti-human Fc antibody, pH 7.0. Here is the method: (§5) Association rates (kₒₙ) and dissociation rates (koff) were calculated using a simple one-to-one Langmuir binding model (BIAcore™ Evaluation Software version 3.2). The equilibrium dissociation constant (KD) was calculated as the ratio koff/kₒₙ.
(In general: SPR reads the build-up and loss of mass on a sensor chip optically.)

For assay [10], the target named is BACE1 of primary mouse neurons (mouse, UniProt P56818 46-501). The experiment in a line: cell-based or functional assay.
Sequence of BACE1 of primary mouse neurons (P56818 46-501): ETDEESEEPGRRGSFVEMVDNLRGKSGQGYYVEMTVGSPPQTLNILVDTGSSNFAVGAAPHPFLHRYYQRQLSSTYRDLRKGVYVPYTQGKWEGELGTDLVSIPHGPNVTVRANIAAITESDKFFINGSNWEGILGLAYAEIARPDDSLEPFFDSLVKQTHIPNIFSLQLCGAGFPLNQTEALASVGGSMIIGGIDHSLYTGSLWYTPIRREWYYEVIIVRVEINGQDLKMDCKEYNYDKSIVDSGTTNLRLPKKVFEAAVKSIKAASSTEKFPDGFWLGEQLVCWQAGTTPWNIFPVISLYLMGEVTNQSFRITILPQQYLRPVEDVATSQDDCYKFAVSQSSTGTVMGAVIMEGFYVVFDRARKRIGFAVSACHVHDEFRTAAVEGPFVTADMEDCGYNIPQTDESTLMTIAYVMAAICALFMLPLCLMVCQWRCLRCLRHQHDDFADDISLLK
In assay [11] the target is BACE1 of 293-HEK cells stably expressing wild-type human APP (UniProt P56817 46-501). In words: cell-based or functional assay.
Sequence of BACE1 of 293-HEK cells stably expressing wild-type human APP (P56817 46-501): as the sequence (P56818 46-501) above, with S6P, I162V, I165L, T180S, A182V, V340I, A393L, H443Q counted along it
The target in assay [12] is T1, human BACE1 extracellular domain, amino …. In words: SPR (BIAcore-3000), IgG captured by anti-human Fc antibody, BACE1 ECD injected, 25 C, pH 7.0. The procedure:
as §5

For assay [13], the target named is T2, human BACE2 extracellular domain (human, UniProt Q9Y5Z0 21-473).
T2 construct: extracellular domain; The extracellular domain is stated for the MCE enzyme assay; also called human recombinant BACE2 extracellular domain
T2 sequence (looked up): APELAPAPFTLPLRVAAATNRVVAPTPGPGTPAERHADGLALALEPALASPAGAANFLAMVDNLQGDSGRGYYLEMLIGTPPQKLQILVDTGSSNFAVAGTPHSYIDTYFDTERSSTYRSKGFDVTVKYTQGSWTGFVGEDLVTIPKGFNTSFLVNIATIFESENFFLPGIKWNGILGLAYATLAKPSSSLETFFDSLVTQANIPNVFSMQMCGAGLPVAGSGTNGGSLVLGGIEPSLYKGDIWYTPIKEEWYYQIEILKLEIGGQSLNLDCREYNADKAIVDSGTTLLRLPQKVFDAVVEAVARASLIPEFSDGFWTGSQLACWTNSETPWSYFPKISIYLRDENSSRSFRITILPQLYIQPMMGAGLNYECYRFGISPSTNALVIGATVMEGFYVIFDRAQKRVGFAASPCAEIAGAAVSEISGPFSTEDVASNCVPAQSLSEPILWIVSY
In words: SPR.

A further assay has as its target T3, Guinea pig BACE1 (Guinea pig).
T3 construct: The method text names only the human and murine ECD; The guinea pig construct is not described
In words: SPR (BIAcore-3000), IgG captured by anti-human Fc antibody, pH 7.0.

The target of assay [14] is T1, human BACE1 extracellular domain, amino …. In words: phage competition ELISA IC50, against parent Fab14.

Where a chain is given by its changes, count along the chain named.

T1 sequence (P56817 22-457): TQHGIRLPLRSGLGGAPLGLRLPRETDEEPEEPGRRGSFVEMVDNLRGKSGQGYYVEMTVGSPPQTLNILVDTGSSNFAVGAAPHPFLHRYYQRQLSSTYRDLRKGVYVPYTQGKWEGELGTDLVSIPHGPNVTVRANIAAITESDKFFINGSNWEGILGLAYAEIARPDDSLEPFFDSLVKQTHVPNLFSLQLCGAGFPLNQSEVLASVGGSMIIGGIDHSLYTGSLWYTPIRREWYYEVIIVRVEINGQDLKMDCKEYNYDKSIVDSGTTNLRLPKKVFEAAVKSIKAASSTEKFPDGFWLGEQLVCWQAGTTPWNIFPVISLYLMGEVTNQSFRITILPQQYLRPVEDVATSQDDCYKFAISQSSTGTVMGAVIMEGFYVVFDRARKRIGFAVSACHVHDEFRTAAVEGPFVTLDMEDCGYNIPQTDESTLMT

B1: Fab LC 4 (Fab, V domains shown)
VH: EVQLVESGGGLVQPGGSLRLSCAASGFNLSYSYIHWVRQAPGKGLEWVASIYSSYGSTYYADSVKGRFTISADTSKNTAYLQMNSLRAEDTAVYYCARSYHHSDKYYYAWSYALDYWGQGTLVTVSS
VL: DIQMTQSPSSLSASVGDRVTITCRASQSVSSAVAWYQQKPGKAPKLLIYSASSLYSGVPSRFSGSGSGTDFTLTISSLQPEDFATYYCQQYSYSLLTFGQGTKVEIK
As to B1, in assay [1], the “ratio of ELISA signal in the absence to the presence of BACE1 in solution” value is over 4 ratio. Also, in [2], the IC50 (as a rule, the concentration that gives 50% inhibition) is 0.46 nM. In assay [3], the Fold affinity improvement worked out at 45 fold. For the same molecule, in assay [4], the “IC50 (nM), HTRF enzyme activity assay” value is 480 nM. Moreover, the “Competition ELISA Ratio” value in assay [5] turned out to be 6.3.

B2: Fab 12 (Fab, V domains shown)
VH: EVQLVESGGGLVQPGGSLRLSCAASGFNFYYSSIHWVRQAPGKGLEWVASISPYSGYTSYADSVKGRFTISADTSKNTAYLQMNSLRAEDTAVYYCARQPTHYYYYAKGYKAMDYWGQGTLVTVSS
VL: B1 VL with L95P, L96F
For B2, the Fold affinity improvement in assay [6] worked out at 1 fold. The IC50 in assay [2] is 45.3 nM.

B3: Fab LC 6 (Fab, V domains shown)
VH: B2 VH
VL: B1 VL with Y49S, S50W, S53W, L95P, L96F
Turning to B3, the “IC50 (read off the curve)” value in assay [7] was about 0.3 nM. For the same molecule, the “improvement in inhibition activity against parent Fab 12, HTRF enzyme activity assay” value (“improvement in inhibition activity” below) in [8] is about 20 fold. Also, the “IC50 (nM), HTRF enzyme activity assay” value in assay [4] was determined as 160 nM.

B4: YW412.8.31 anti-BACE1 human IgG (antibody, V domains shown)
VH: EVQLVESGGGLVQPGGSLRLSCAASGFTFLGYGIHWVRQAPGKGLEWVGWISPAGGSTDYADSVKGRFTISADTSKNTAYLQMNSLRAEDTAVYYCARGPFSPWVMDYWGQGTLVTVSS
VL: B1 VL with S28D, S31T, S53F, Y91F, S92P, Y93T, S94Y, L96P
notes: also called YW412.8.31 antibody
B4: in [9], the Kd (as a rule, the equilibrium constant for the complex coming apart) amounted to 1.32 nM; the koff (as a rule, the rate constant with which the complex falls apart) amounted to 0.000139 s⁻¹; the kon (as a rule, the second-order rate constant of association) was 105000 M⁻¹ s⁻¹. Besides, in assay [8], the “IC50, HTRF long peptide assay” value turned out to be 1.7 nM; the “IC50, microfluidic capillary electrophoresis assay” value was determined as 0.08 nM; the “IC50, short FRET peptide assay” value worked out at 17 nM. In assay [10], the “IC50, Aβ40 production in DRG neurons” value stood at 8.4 nM; the “IC50, Aβ40 production in cortical and hippocampal neurons” value lay within 2.3 to 2.6 nM. Also, in assay [11], the “IC50, Aβ1-40 production in APP-expressing 293 cells” value turned out to be 17 nM. In assay [12], this molecule displayed a Kd of 2.9 nM, a koff of 0.00031 s⁻¹ and an association rate constant (kon) of 110000 M⁻¹ s⁻¹. For the same molecule, the binding result in [13] is “no binding”. In the assay with Guinea pig BACE1, this molecule yielded a Kd of 2.6 nM, a koff of 0.00027 s⁻¹ and an association rate constant (kon) of 100000 M⁻¹ s⁻¹.

B5: Fab LC10 (Fab, V domains shown)
VH: B2 VH
VL: B1 VL with Y49W, S50W, L95P, L96F
Take B5: the “improvement in inhibition activity” value in assay [8] was about 20 fold.

B6: Fab LC 9 (Fab, V domains shown)
VH: B2 VH
VL: B1 VL with Y49W, S50Y, S53W, L95P, L96F
B6: in [8], the “improvement in inhibition activity” value is about 20 fold. Besides, the “IC50 (nM), HTRF enzyme activity assay” value in [4] came to 140 nM.

B7: Fab LC 40 (Fab, V domains shown)
VH: EVQLVESGGGLVQPGGSLRLSCAASGFNVSSSSMHWVRQAPGKGLEWVASIYPYSSSTSYADSVKGRFTISADTSKNTAYLQMNSLRAEDTAVYYCARYSYYSYGIDYWGQGTLVTVSS
VL: DIQMTQSPSSLSASVGDRVTITCRASQYSYSYSVAWYQQKPGKAPKLLISYASYLYSGVPSRFSGSGSGTDFTLTISSLQPEDFATYYCQQYSYSYSPITFGQGTKVEIK
In the case of B7, in [1], the “ratio of ELISA signal in the absence to the presence of BACE1 in solution” value was over 3 ratio. In addition, the IC50 in [2] came to 4.7 nM. The Fold affinity improvement in assay [14] came out at 3 fold. For the same molecule, the “Competition ELISA Ratio” value in assay [5] stood at 3.
